Reference: patent US20080119424A1 (published 2008)
Where a chain is given by its changes, count along the chain named.

T1: endogenous RARα (Retinoic Acid Receptor alpha) of mouse cells (mouse (endogenous in mouse embryonic …, UniProt P11416 1-462, limits assumed))
T1 construct: Endogenous protein detected by immunoblot with anti-RARα (C-20)
T1 sequence (looked up): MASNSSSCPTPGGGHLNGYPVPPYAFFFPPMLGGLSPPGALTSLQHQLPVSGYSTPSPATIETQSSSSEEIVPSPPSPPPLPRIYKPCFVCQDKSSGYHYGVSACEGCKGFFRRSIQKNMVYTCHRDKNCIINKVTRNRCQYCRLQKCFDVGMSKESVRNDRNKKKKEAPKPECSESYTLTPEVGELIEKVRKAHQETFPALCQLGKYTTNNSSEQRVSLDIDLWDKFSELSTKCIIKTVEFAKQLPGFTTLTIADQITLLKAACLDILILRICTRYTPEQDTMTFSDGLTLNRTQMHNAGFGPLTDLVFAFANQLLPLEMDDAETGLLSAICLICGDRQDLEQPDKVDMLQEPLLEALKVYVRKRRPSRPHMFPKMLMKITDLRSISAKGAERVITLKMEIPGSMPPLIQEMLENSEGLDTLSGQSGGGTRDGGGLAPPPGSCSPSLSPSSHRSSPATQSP

T2: VP16-RARα LBD (UniProt P10276 154-462)
T2 construct: domain: LBD
T2 sequence: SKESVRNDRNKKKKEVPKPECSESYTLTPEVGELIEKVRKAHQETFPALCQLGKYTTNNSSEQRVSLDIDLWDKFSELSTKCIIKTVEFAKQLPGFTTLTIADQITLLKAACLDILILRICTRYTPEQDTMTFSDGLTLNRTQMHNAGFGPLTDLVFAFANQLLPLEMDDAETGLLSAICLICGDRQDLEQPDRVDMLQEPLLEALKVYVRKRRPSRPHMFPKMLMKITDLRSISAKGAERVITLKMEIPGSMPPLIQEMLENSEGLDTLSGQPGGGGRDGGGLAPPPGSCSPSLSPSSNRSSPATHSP

B1: TAP-PRAME-LREVV mutant protein (other)
chain: MERRRLRGSIQSRYISMSVWTSPRRLVELAGQSLLKDEALAIAALELLPRELFPPLFMAAFDGRHSQTLKAMVQAWPFTCLPLGVLMKGQHLHLETFKAVLDGLDVLLAQEVRPRRWKLQVLDLRKNSHQDFWTVWSGNRASLYSFPEPEAAQPMTKKRKVDGLSTEAEQPFIPVEVLVDLFLKEGACDELFSYLIEKVKRKKNVLRLCCKKLKIFAMPMQDIKMILKMVQLDSIEDLEVTCTWKLPTLAKFSPYLGQMINLRRLLLSHIHASSYISPEKEEQYIAQFTSQFLSLQCLQALYVDSLFFLRGRLDQLLRHVMNPLETLSITNCRLSEGDVMHLSQSPSVSQLSVLSLSGVMLTDVSPEPLQALLERASATLQDLVFDECGITDDQLLALLPSLSHCSQLTTLSFYGNSISISALQSLLQHLIGLSNLTHVLYPVPLESYEDIHGTLHLERLAYLHARLREVVCELGRPSMVWLSANPCPHCGDRTFYDPEPILCPCFMPN
notes: not shown: TAP tag
B2: PRAME-ΔLXXLL (other)
chain: B1 chain with L107V, L108V, L262V, L316V, L317V, L369V, L398V, L399V, L426V, L427V
notes: also called PRAME mutant in which all 7 NR boxes were mutated
B3: Gal4-… (416-509) (other, not shown: large carriers; small tags and cut ends)
chain: NSISISALQSLLQHLIGLSNLTHVLYPVPLESYEDIHGTLHLERLAYLHARLREVVCELGRPSMVWLSANPCPHCGDRTFYDPEPILCPCFMPN
notes: also called box 7 mutant

What was measured:
[1] = target: T1, endogenous RARα (Retinoic Acid Receptor …); test: co-immunoprecipitation, immunoblot for RARα
Procedure: Proteins were transferred to polyvinylidine difluoride membranes (Immobilon P, Millipore) and Western blots were probed with the indicated antibodies. For TAP (co-)immunoprecipitations cells were lysed in ELB buffer (0.25 M NaCl, 0.1% NP-40, 50 mM HEPES pH 7.3) supplemented with protease inhibitors and PMSF.

VP16-RARα LBD = target: T2, VP16-RARα LBD; test: mammalian two-hybrid assay (luciferase) in the presence of RA

Binder	binding result [1]	binding result (VP16-RARα LBD)
B1	no binding	–
B2	no binding	–
B3	–	no binding
